From the supplement of paper PMC9170038 come the findings set out here.

The test system of the data set is MS2 coat protein. Description: apparent KD of MS2 coat protein; designed switch direction (-1 OFF switch, 1 ON switch): 1; higher = weaker reporter binding. An outline of the steps: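 SNAP-549-labelled MS2 coat protein was titrated, doubling from 0.7 or 1.5 nM to 3 µM, over designed RNA switches transcribed on Illumina chips by stalled E. coli RNA polymerase. Runs were done without input, with 200 uM small-molecule ligand, or with an oligonucleotide input. Apparent KD is the per-design median over clusters of curve-fitted normalised fluorescence.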

Where [1] appears, read: Eterna round: R95, input ligand: FMN 200 uM.
[2] abbreviates: Eterna round: R95, input ligand: microRNA oligo, concentration not stated.
[3] abbreviates: Eterna round: R95, input ligand: none.
Where [4] appears, read: input ligand: microRNA oligo, concentration not stated.

Turning to “AAACUACGUGCACAGGAUAUACGUUCCUAUACAUGAGGAUCACCCAUGUACCAACCGAAAAGGAAGUAGAAGGGUGUCCGUAAAC [Esardixequ] (puzzle: Same State 2)”, the “apparent KD of MS2 coat protein” value by setting is: under setting [1], 19.2 nM; under setting [2], 51.6 nM; under setting [3], 57.2 nM.
In the case of “AAACUACGUGCACAGGAUAUACGUUCCUAUACAUGAGGAUCACCCAUGUACCAACUGAAAAGGAAGUAGAAGGGUGUCCGUAAAC [Erbibearza] (puzzle: Same State 2)”, the “apparent KD of MS2 coat protein” value under setting [1] is 17.7 nM, the “apparent KD of MS2 coat protein” value under setting [2] was 80.3 nM and the “apparent KD of MS2 coat protein” value under setting [3] is 53.7 nM.
For “AAAGAAGAAAGACAGGAUAUGGAUGGGUAAACAUGAGGAUCACCCAUGUAUAAGAAAGAAAGAAACCAGAAGGGUCAAAAGAAAA [Darius III] (Eterna round: R96, puzzle: Same State 2)”, the “apparent KD of MS2 coat protein” value is, setting by setting: (input ligand: FMN 200 uM) 68.7 nM; under setting [4], 217 nM; (input ligand: none) 253 nM.
Turning to “AAAGGACAUGAGGAUCACCCAUGUAGAAAAUACACAGGAUAUCGUCAUAUCGAAUUAUAAUGAGAAGGGUGCAAAA [Vebeinlala] (puzzle: Same State 1)”, the “apparent KD of MS2 coat protein” value runs as follows: under setting [1], 59.9 nM; under setting [2], 273 nM; under setting [3], 124 nM.
On to “AAAGGAUGAUUAUACAUGAGGAUCACCCAUGUAAGUUAUACUAAGGAUAUGUGACUUAAUAGUUUACAGAAGGUAGGUUCAUGA [AK SSNG3-V2-2] (Eterna round: R96, puzzle: Same State NG 3)”, for which the “apparent KD of MS2 coat protein” value (input ligand: FMN 200 uM) is 43.8 nM, the “apparent KD of MS2 coat protein” value under setting [4] was 69.3 nM and the “apparent KD of MS2 coat protein” value (input ligand: none) was 59.9 nM.
On to “AACAAUCUAUCUGAGGAUAUCAUGAAAAAAACAUGAGGAUCACCCAUGUGCAGGAAAACUGCAUAUGAGAAGGCAGAUAGAUUGA [SS2: 1101] (Eterna round: R96, puzzle: Same State 2)”, for which the “apparent KD of MS2 coat protein” value under setting [4] amounted to 490 nM.
Still for that read-out and setting: under “AACAAUCUAUCUGAGGAUAUCAUGAAAAAAACAUGAGGAUCACCCAUGUGCAGGAAAACUGCAUAUGAGAAGGCAGAUAGAUUGA [salish99_SS2_r3_001] (Eterna round: R96, puzzle: Same State 2)” stands 490 nM.
For “AACAAUCUAUCUGAGGAUAUCAUGAAAAAAACAUGAGGAUCACCCAUGUGCAGGAAAACUGCAUAUGAGAAGGCAGAUAGAUUGA [salish99_SS2_r3_001] (puzzle: Same State 2)”, the “apparent KD of MS2 coat protein” value is 20.6 nM under setting [1], 484 nM under setting [2] and 741 nM under setting [3].
As to “AACAAUCUAUCUGAGGAUAUCAUGAAAUAAACAUGAGGAUCACCCAUGUGCAGGAAAACUGCUUAUGAGAAGGCAGAUAGAUUGA [salish99_ss2_r3_047] (puzzle: Same State 2)”, the “apparent KD of MS2 coat protein” value was 10.3 nM under setting [1], 12.6 nM under setting [2] and 12.2 nM under setting [3].
The corresponding values for “AACAAUCUAUCUGAGGAUAUCAUGAAAUAAACAUGAGGAUCACCCAUGUGCAGGUAAACUGCAUAUGAGAAGGCAGAUAGAUUGA [salish99_ss2_r3_040] (puzzle: Same State 2)” are 60.1 nM, 314 nM and 571 nM.
Consider “AACAGUCGACGAGGAUAUGGACGGACAGGUUUGCCUGUGCGGCUCACAUGAGGAUCACCCAUGUUCUAGAAGGCGUCACUGUGA [Matidia] (Eterna round: R96, puzzle: Same State NG 2)”, for which the “apparent KD of MS2 coat protein” value runs as follows: (input ligand: FMN 200 uM) 15.5 nM; under setting [4], 79.2 nM; (input ligand: none) 80.5 nM.
Turning to “AACAGUCGGCGAGGAUAUGGACGUACGAACUUACCCGUGCGGCUCACAUGAGGAUCACCCAUGUUCUAGAAGGCGCCACUGAAA [Atbeon] (Eterna round: R96, puzzle: Same State NG 2)”, the “apparent KD of MS2 coat protein” value reads like this: (input ligand: FMN 200 uM) 12.2 nM; under setting [4], 63.4 nM; (input ligand: none) 88.8 nM.
In the same order, the values of “AACAUGAGGAUCACCCAUGUGAAAUACUGAGGCAGCUCAGGGAAGGAUAUGGUUGACACCCUCGACCAGAAGGUCCAAAAUAAA [Aquorxe] (Eterna round: R96, puzzle: Same State NG 3)” are 80.8 nM, 108 nM and 143 nM.
In the same order, the values of “AACCCAGUGGAAGGAUAUGGCACCUUAUUGGUGCCAGAAGGUCCUAACAUGAGGAUCACCCAUGUGGGCCGGUCGAAAGACCGG [Fiskers NG1ss - 10] (Eterna round: R96, puzzle: Same State NG 1)” are 101 nM, 242 nM and 338 nM.
Take “AACCCGAAGGGAGGAUAUGGCACCUUAUUGGUGCCAGAAGGUCCUCACAUGAGGAUCACCCAUGUGGGCCGGUCGAAAGACCGG [Fiskers NG1ss - 12] (Eterna round: R96, puzzle: Same State NG 1)”: the “apparent KD of MS2 coat protein” value reads like this: (input ligand: FMN 200 uM) 532 nM; under setting [4], 407 nM; (input ligand: none) 500 nM.
For “AACGGUGCUUGAAAUAGUCACAUGAGGAUCACCCAUGUUAGGCAGGAUAUGUGUCUAAGACGACCGCAGAAGGGCUCAAGCGAU [Eternabot solution 41] (Eterna round: R96, puzzle: Same State NG 3)”, the “apparent KD of MS2 coat protein” value runs as follows: (input ligand: FMN 200 uM) 49.5 nM; under setting [4], 26.9 nM; (input ligand: none) 34.6 nM.
With “AAGAAAGACGCAGGAUAUCAGUGCAGACCGCACUGAGAAGGGUGAGACAUGAGGAUCACCCAUGUAACACGACAAAACGUCGUG [Anritiat] (Eterna round: R96, puzzle: Same State NG 1)”, the “apparent KD of MS2 coat protein” value by setting is: (input ligand: FMN 200 uM) 111 nM; under setting [4], 118 nM; (input ligand: none) 13.9 nM.
The corresponding values for “AAGAAAUCCGCAGGAUAUCCUAAGCCGGGCUUAGGAGAAGGGUGGCCACAUGAGGAUCACCCAUGUAAAGGCUGAAUCACAGCC [Disois] (Eterna round: R96, puzzle: Same State NG 1)” are 662 nM, 268 nM and 491 nM.
On to “AAGAAUCUAUCUCAGGAUAUCAUGUCAAAGACAUGAGGAUCACCCAUGUACCAGGAAACUGGUUAUGAGAAGGGAGAUAGAUUCU [Mat - Same State 2 - Mod - D32] (puzzle: Same State 2)”, for which the “apparent KD of MS2 coat protein” value came to 99.4 nM under setting [1], 30.6 nM under setting [2] and 282 nM under setting [3].
With “AAUAAUUUACAUGAGGAUCACCCAUGUGGUAAACAUGCUUUUUGCUCGUCUUAUGGUUUUUUUUUUUUUUUUUUUUU [viviankchen1] (puzzle: Sensor for hsa-mir-208a version 2)”, the “apparent KD of MS2 coat protein” value reads like this: under setting [1], 91 nM; under setting [2], 49.6 nM; under setting [3], 130 nM.
In the case of “AAUGUCUCACAUGAGGAUCACCCAUGUCUUUGGAUGAAGCUUUUUGCUCGUCUUCAUUUUGCUCGUCUUACCCAUGU [SBY_1] (puzzle: Sensor for hsa-mir-208a version 2)”, the “apparent KD of MS2 coat protein” value under setting [1] came out at 44.8 nM, the “apparent KD of MS2 coat protein” value under setting [2] came to 21 nM and the “apparent KD of MS2 coat protein” value under setting [3] is 52.7 nM.
Turning to “AAUUAAGAUCAAGGAUAUCACGUCGAUUAGACGUGAGAAGGUGAUAAUUACAUGAGGAUCACCCAUGUAUAACAUGAAUUAAUU [SSNG1/9-B2] (Eterna round: R96, puzzle: Same State NG 1)”, the “apparent KD of MS2 coat protein” value (input ligand: FMN 200 uM) came to 31.8 nM, the “apparent KD of MS2 coat protein” value under setting [4] was 23.9 nM and the “apparent KD of MS2 coat protein” value (input ligand: none) turned out to be 33.5 nM.
“AAUUAUUAACAUGAGGAUCACCCAUGUAUUUUUUGCUCGUCAUGUAUUAUUAUUAUUAUUAUUAUUAUUAUUAUUAA [my first RNA] (puzzle: Sensor for hsa-mir-208a version 2)”: the “apparent KD of MS2 coat protein” value worked out at 26.8 nM under setting [1], 17.1 nM under setting [2] and 37.8 nM under setting [3].
The corresponding values for “AAUUUUAAACAUGAGGAUCACCCAUGUGUUAUAUAAGCAAAUAAAUAAAUAAAUAAAUAAAUAAAUAAAUAAAUAAA [RNA Sequence] (puzzle: Sensor for hsa-mir-208a version 2)” are 34.1 nM, 40.2 nM and 44.5 nM.
For the sequence “ACAAGACAUGAGGAUCACCCAUGUAUAAAUUACACAGGAUAUCGGUGGGCCGCGCCUACACGAGAAGGGUGACUUC [Gere] (puzzle: Same State 1)”, the “apparent KD of MS2 coat protein” value was found to be 77 nM under setting [1], 33.4 nM under setting [2] and 35.5 nM under setting [3].
The corresponding values for “ACAAGCUUUUCUGUAGUGAAAGGUGGGAUACAUGAGGAUCACCCAUGUAUUGUUGUCAAUAUUUGUCCUCGUCUUAU [JR_SHM208A_Sub086] (puzzle: Sensor for hsa-mir-208a)” are 31.4 nM, 11 nM and 31.1 nM.
As for “ACAUGAAAUACAGGAUAUUUUGUACCUACAUGUGACAUGAGGAUCACCCAUGUGGUAAGUAUAAGAGAGAAGGGUAAGAUAUGU [Equivalence 4 - Jieux - Same State NG 2] (Eterna round: R96, puzzle: Same State NG 2)”, the “apparent KD of MS2 coat protein” value runs as follows: (input ligand: FMN 200 uM) 50.1 nM; under setting [4], 43.8 nM; (input ligand: none) 66.4 nM.
The corresponding values for “ACAUGAAAUGCAGGAUAUUUUGUACCUACAUGUGACAUGAGGAUCACCCAUGUGGUAAGUAUAAGAGAGAAGGGUAAGAUAUGU [Equivalence 3 - Jieux - Same State NG 2] (Eterna round: R96, puzzle: Same State NG 2)” are 60.6 nM, 48.3 nM and 72.3 nM.
